B1: hsALAS2_(ΔN142ΔC545) (catalytic domain alone, aa 143–545) (domain or fragment, human, UniProt P22557 143-545, looked up)
chain: FSYDQFFRDKIMEKKQDHTYRVFKTVNRWADAYPFAQHFSEASVASKDVSVWCSNDYLGMSRHPQVLQATQETLQRHGAGAGGTRNISGTSKFHVELEQELAELHQKDSALLFSSCFVANDSTLFTLAKILPGCEIYSDAGNHASMIQGIRNSGAAKFVFRHNDPDHLKKLLEKSNPKIPKIVAFETVHSMDGAICPLEELCDVSHQYGALTFVDEVHAVGLYGSRGAGIGERDGIMHKIDIISGTLGKAFGCVGGYIASTRDLVDMVRSYAAGFIFTTSLPPMVLSGALESVRLLKGEEGQALRRAHQRNVKHMRQLLMDRGLPVIPCPSHIIPIRVGNAALNSKLCDLLLSKHGIYVQAINYPTVPRGEELLRLAPSPHHSPQMMEDFVEKLLLAWTAVGL
notes: human ALAS2, catalytic domain alone, aa 143–545 (Ct-extension omitted); also called hsALAS2_(ΔN142ΔC545) WT; source: constructs cloned into pFB-LIC-Bse (Sf9) and pNIC28-Bsa4; purified (Ni-NTA, Superdex 200)
B2: hsALAS2_(ΔN142) (human erythroid-specific 5′-aminolevulinate synthase, aa 143–587) (enzyme, UniProt P22557 143-587, looked up)
chain: FSYDQFFRDKIMEKKQDHTYRVFKTVNRWADAYPFAQHFSEASVASKDVSVWCSNDYLGMSRHPQVLQATQETLQRHGAGAGGTRNISGTSKFHVELEQELAELHQKDSALLFSSCFVANDSTLFTLAKILPGCEIYSDAGNHASMIQGIRNSGAAKFVFRHNDPDHLKKLLEKSNPKIPKIVAFETVHSMDGAICPLEELCDVSHQYGALTFVDEVHAVGLYGSRGAGIGERDGIMHKIDIISGTLGKAFGCVGGYIASTRDLVDMVRSYAAGFIFTTSLPPMVLSGALESVRLLKGEEGQALRRAHQRNVKHMRQLLMDRGLPVIPCPSHIIPIRVGNAALNSKLCDLLLSKHGIYVQAINYPTVPRGEELLRLAPSPHHSPQMMEDFVEKLLLAWTAVGLPLQDVSVAACNFCRRPVHFELMSEWERSYFGNMGPQYVTTYA
notes: human ALAS2 (5′-aminolevulinate synthase, erythroid-specific), aa 143–587: catalytic core and Ct-extension; Before crystallisation it was made non-covalent with hydroxylamine; The His6 tag is TEV-cleavable and was removed 'where applicable'; also called hsALAS2_(ΔN142) WT; source: baculovirus-infected Sf9 insect cells, purified (Ni-NTA, Superdex 200)

Target: the molecule itself
Experiment: SEC + other: SAXS; in solution; SAXS coupled to a Shodex KW403-4F size exclusion column; 300 mM NaCl, 25 mM Hepes 7.5, 1 mM TCEP, 2% glycerol, 1% sucrose, 20 °C

Row | Protein | stoichiometry N
1 | B1 | 2
2 | B2 | 2

From PMC7272653, “Human aminolevulinate synthase structure reveals a eukaryotic-specific autoinhibitory loop regulating substrate binding and product release” (Nature Communications, 2020)
